This is an account of results in patent publication US20180066029A1.

Assay in all cases: CIDOP with next-generation sequencing, recovery of peaks
Test [1] concerns the target nucleosomes having neither H3K9me3 nor H3K36me3.
Test [2] has as its target nucleosomes having only H3K9me3.
Test [3] concerns the target nucleosomes having both H3K9me3 and H3K36me3 (H3K36me2/3).
Test [4] concerns the target nucleosomes having only H3K36me3.

As to “artificial protein PM (PWWP domain of Dnmt3a, naturally occurring linker of 21 amino acids, chromodomain of MPP8, N-terminal GST tag) (designed binder)”, the figures for the percent of genome regions of this state isolated by PM in test [1], in test [2] and in test [4] were 0.04%, 6.2% and 6.66%, respectively. In test [3], this substance showed a percent of genome regions of this state detected by PM of 80.9%.
